Assay results reported in paper PMC5739758, “Human oncoprotein Musashi-2 N-terminal RNA recognition motif backbone assignment and identification of RNA-binding pocket”.

Legend:
[1] = molecular target: T1, MSI2-RRM1 (human, UniProt Q96DH6 21-111); test: TR-FRET; 2 nM RNA; TR-FRET at room temperature (FP per earlier publication; binding buffers not given; protein stored in 50 mM Tris-HCl pH 8.0, 500 mM NaCl); NMR 20 mM MES pH 6.0, 150 mM NaCl, 5% D2O, 298 K; conditions: protein: recombinant; tags: N-terminal His6 + TEV site (residues -3 to 20); label: 3' biotin
[2] = molecular target: T1, MSI2-RRM1; test: TR-FRET; 2 nM RNA; no detectable binding in nM range; TR-FRET at room temperature (FP per earlier publication; binding buffers not given; protein stored in 50 mM Tris-HCl pH 8.0, 500 mM NaCl); NMR 20 mM MES pH 6.0, 150 mM NaCl, 5% D2O, 298 K; conditions: protein: recombinant; tags: N-terminal His6 + TEV site (residues -3 to 20); label: 3' biotin
[3] = molecular target: T1, MSI2-RRM1; test: NMR; 1H-15N HSQC titration, 1:1, slow exchange; TR-FRET at room temperature (FP per earlier publication; binding buffers not given; protein stored in 50 mM Tris-HCl pH 8.0, 500 mM NaCl); NMR 20 mM MES pH 6.0, 150 mM NaCl, 5% D2O, 298 K; conditions: protein: recombinant; tags: N-terminal His6 + TEV site (residues -3 to 20)

T1 sequence (Q96DH6 21-111): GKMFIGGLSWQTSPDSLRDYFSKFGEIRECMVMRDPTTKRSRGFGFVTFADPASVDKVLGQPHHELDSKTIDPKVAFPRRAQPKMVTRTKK

UAGGUAGUAGUUUUA (ssRNA) [NumbBiotin]
Kd [1]: 2.07 nM

UAGCAUCAUCAUUUA (ssRNA) [Numb-mutBiotin]
binding result [2]: no binding

GUAGU (ssRNA) [Numb5]
binding result [3]: binds
